We go through one molecule from article PMC4335501 (2015).

The target of this test is HAdV-52 long fiber knob (human adenovirus type 52 (HAdV-52)). The test can be described thus: SPR. (In general: In SPR one partner is held on a chip, and binding of the other changes the refractive index at the surface.)

B1: Recombinant human CAR (CXADR Fc chimera; full length extracellular D1D2 domain) (Fc fusion)
chain: LSITTPEEMIEKAKGETAYLPCKFTLSPEDQGPLDIEWLISPADNQKVDQVIILYSGDKIYDDYYPDLKGRVHFTSNDLKSGDASINVTNLQLSDIGTYQCKVKKAPGVANKKIHLVVLVKPSGARCYVDGSEEIGSDFKIKCEPKEGSLPLQYEWQKLSDSQKMPTSWLAEMTSSVISVKNASSEYSGTYSCTVRNRVGSDQCLLRLNVVPPSNKAG
For the molecule B1, the off-rate constant (koff) is 0.00221 s⁻¹.

For orientation: koff means a measure of how fast the partners let go of each other. Low readings indicate a long-lived complex, high ones a short-lived complex.
